A short description of data set [1]: Salting out / precipitation of antigen on reconstitution in adjuvant buffer (visual). The format is physicochemical. As for the experimental part: Accordingly, in one embodiment the antigen or antigenic preparation is any antigen which precipitates, coagulates or aggregates after being dissolved in a solution comprising a concentration of sodium chloride (NaCl) or wherein the ionic strength of the solution is greater than 5 mM, 10 mM, 15 mM, 20 mM, 30 mM, 40 mM, 50 mM, 60 mM, 70 mM, 80 mM, 90 mM or 100 mM. The person skilled in the art can determine whether an antigen meets this definition by dissolving and/or mixing an antigen in such a solution. […] An antigen which precipitates, coagulates or aggregates after being dissolved in a solution comprising a concentration of sodium chloride of 100 mM is one which, after 24 hours or less, can be seen to be precipitating by the cloudiness of the solution. In addition, aggregation that is not detectable visually may be observed using methods known to the skilled person which include, but are not limited to SEC-HPLC.
The resulting lyophilsation cake was reconstituted with 625 μl of aqueous adjuvant composition prepared as in Example 2 comprising 150 mM NaCl. The lyophilsation cake contained a 1.25 fold excess of antigen dose to have the right antigen/adjuvant ratio after reconstitution with a final composition of 16 mM Tris, 4 mM borate, 4% sucrose, 0.24% Poloxamer 188, 840 μg/ml CpG and 1000 μg/ml PRAME.
The resulting lyophilsation cake was reconstituted with 625 μl of ASA buffers (150 mM NaCl and sorbitol).
1. PRAME antigen reconstituted in ASA 150 mM NaCl buffer. 2. PRAME antigen reconstituted in ASA sorbitol buffer. 3. NYESO-1 antigen reconstituted in ASA 150 mM NaCl buffer. 4. NYESO-1 antigen reconstituted in ASA sorbitol buffer.
FIG. 4 is a photographic comparison between PRAME and NYESO-1 reconstituted in ASA (150 mM NaCl) and ASA (sorbitol). […] Similarly, NY-ESO reconstituted in ASA (150 mM NaCl) appears cloudy compared to NY-ESO antigen reconstituted in ASA (sorbitol).

The test system of data set [2] is chicken Red Blood cells (RBC). Briefly: QS21 lytic activity, haemolysis assay (limit test). The settings on record: example curve; OD of 0.12. The format is cell-based. As for the experimental part:
QS21 is known to lyse red blood cells (RBC).
QS21 lytic activity was measured by a haemolysis assay using chicken Red Blood cells (RBC). RBC were centrifuged at 550 g at 4° C. Supernatant was discarded. The pellet was carefully resuspended in PBS buffer to reach the initial volume and the same operation was repeated until supernatant was no longer red (generally 3 times). The pellet was stored at 4° C. for 3 to 4 days maximum if not used directly (and washed again the day it is used) or was diluted around 10 times in buffer if used the same day.
A QS21 dose range curve was prepared in ASA buffer (in salt or in sorbitol buffer following the ASA sample tested) extemporaneously and the adjuvant samples (containing a 50 μg or 90 μg equivalent of QS21 meaning the equivalent of 500 μl or 900 μl ASA) were prepared. Final volume was adjusted to 900 μl in standards and samples with adequate buffer (containing or not sorbitol as a function of the buffer of the sample tested). Due to its opalescence, ASA interferes in optical density (OD). […] Optical density at 540 nm was measured after centrifugation. […]
1. Limit of detection (LOD) was defined as the lowest concentration of QS21 leading to an OD: • Higher than the base level (OD>0.1) • Around three times higher than OD's buffer (the “o μg” QS21) • In the ascendant part of the curve • Determined for each test. […]

For “PRAME: tumour protein antigen, described in U.S. Pat. No. 5,830,753; co-lyophilised with CpG 2006 in the examples”, the appearance after reconstitution entry in data set [1] (lyophilised with CpG, reconstituted in ASA (150 mM NaCl), compared to ASA (sorbitol), FIG. 4) is “cloudy”. Also, the “salting out in adjuvant composition” value in data set [1] (salt concentration reduced to 5 mM and sorbitol included (ASA sorbitol buffer), FIG. 4) is reported as “prevents “salting out””. Also, the “concentration of sodium chloride at which the antigens aggregate and precipitate” value in data set [1] (salting out, as low as) is 150000 µM.

Consider QS21, for which, in data set [2], the “Limit of Detection (lowest concentration of QS21 leading to OD above base level)” value stood at 0.9 µg.

The values above are taken from patent US20120093921A1, “IMMUNOGENIC COMPOSITIONS HAVING LOW SODIUM CHLORIDE CONCENTRATION” (GLAXOSMITHKLINE BIOLOGICALS S.A., priority 2009, published 2012).
